Molecular target: T1, FcγRIIIa extracellular domain, C-terminal His tag (human, UniProt P08637 17-208)
T1 construct: extracellular domain; also called 3a
Experiment: SPR, binding activity relative to GpH7-A5/GpH7-B3/GpL16-k0 (=100)

T1 sequence (P08637 other isoform, or with tags, fused parts or gaps): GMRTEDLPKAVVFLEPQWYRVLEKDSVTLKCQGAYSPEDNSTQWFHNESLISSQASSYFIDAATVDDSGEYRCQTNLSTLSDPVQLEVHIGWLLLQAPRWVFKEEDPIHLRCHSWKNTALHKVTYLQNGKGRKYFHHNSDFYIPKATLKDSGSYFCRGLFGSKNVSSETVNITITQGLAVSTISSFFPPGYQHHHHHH

Binder	He/Con 3a
GpH7-A5/GpH7-B3 variant L234_14T/GpL16-k0 (antibody, human IgG1, kappa, He Ab; copies: 1 + 1 + 2) heavy 1: not shown heavy 2: not shown light: DIVMTQSPLSLPVTPGEPASISCQASESLVHSNRNTYLHWYLQKPGQSPQLLIYKVSNRFSGVPDRFSGSGSGTDFTLKISRVEAEDVGVYYCSQNTHVPPTFGQGTKVEIERTVAAPSVFIFPPSDEQLKSGTASVVCLLNNFYPREAKVQWKVDNALQSGNSQESVTEQDSKDSTYSLSSTLTLSKADYEKHKVYACEVTHQGLSSPVTKSFNRGEC	69.8%
GpH7-A5/GpH7-B3 variant L235_01G/GpL16-k0 (antibody, human IgG1, kappa, He Ab; copies: 1 + 1 + 2) heavy 1: not shown heavy 2: not shown light: DIVMTQSPLSLPVTPGEPASISCQASESLVHSNRNTYLHWYLQKPGQSPQLLIYKVSNRFSGVPDRFSGSGSGTDFTLKISRVEAEDVGVYYCSQNTHVPPTFGQGTKVEIERTVAAPSVFIFPPSDEQLKSGTASVVCLLNNFYPREAKVQWKVDNALQSGNSQESVTEQDSKDSTYSLSSTLTLSKADYEKHKVYACEVTHQGLSSPVTKSFNRGEC	56.7%
GpH7-A5/GpH7-B3 variant L234_15Y/GpL16-k0 (antibody, human IgG1, kappa, He Ab; copies: 1 + 1 + 2) heavy 1: not shown heavy 2: not shown light: DIVMTQSPLSLPVTPGEPASISCQASESLVHSNRNTYLHWYLQKPGQSPQLLIYKVSNRFSGVPDRFSGSGSGTDFTLKISRVEAEDVGVYYCSQNTHVPPTFGQGTKVEIERTVAAPSVFIFPPSDEQLKSGTASVVCLLNNFYPREAKVQWKVDNALQSGNSQESVTEQDSKDSTYSLSSTLTLSKADYEKHKVYACEVTHQGLSSPVTKSFNRGEC	126%
GpH7-A5/GpH7-B3 variant L235_10E/GpL16-k0 (antibody, human IgG1, kappa, He Ab; copies: 1 + 1 + 2) heavy 1: not shown heavy 2: not shown light: DIVMTQSPLSLPVTPGEPASISCQASESLVHSNRNTYLHWYLQKPGQSPQLLIYKVSNRFSGVPDRFSGSGSGTDFTLKISRVEAEDVGVYYCSQNTHVPPTFGQGTKVEIERTVAAPSVFIFPPSDEQLKSGTASVVCLLNNFYPREAKVQWKVDNALQSGNSQESVTEQDSKDSTYSLSSTLTLSKADYEKHKVYACEVTHQGLSSPVTKSFNRGEC	85.6%
GpH7-A5/GpH7-B3 variant L235_03V/GpL16-k0 (antibody, human IgG1, kappa, He Ab; copies: 1 + 1 + 2) heavy 1: not shown heavy 2: not shown light: DIVMTQSPLSLPVTPGEPASISCQASESLVHSNRNTYLHWYLQKPGQSPQLLIYKVSNRFSGVPDRFSGSGSGTDFTLKISRVEAEDVGVYYCSQNTHVPPTFGQGTKVEIERTVAAPSVFIFPPSDEQLKSGTASVVCLLNNFYPREAKVQWKVDNALQSGNSQESVTEQDSKDSTYSLSSTLTLSKADYEKHKVYACEVTHQGLSSPVTKSFNRGEC	94.6%
GpH7-A5/GpH7-B3 variant L235_20W/GpL16-k0 (antibody, human IgG1, kappa, He Ab; copies: 1 + 1 + 2) heavy 1: not shown heavy 2: not shown light: DIVMTQSPLSLPVTPGEPASISCQASESLVHSNRNTYLHWYLQKPGQSPQLLIYKVSNRFSGVPDRFSGSGSGTDFTLKISRVEAEDVGVYYCSQNTHVPPTFGQGTKVEIERTVAAPSVFIFPPSDEQLKSGTASVVCLLNNFYPREAKVQWKVDNALQSGNSQESVTEQDSKDSTYSLSSTLTLSKADYEKHKVYACEVTHQGLSSPVTKSFNRGEC	73.8%
GpH7-A5/GpH7-B3 variant L234_20W/GpL16-k0 (antibody, human IgG1, kappa, He Ab; copies: 1 + 1 + 2) heavy 1: not shown heavy 2: not shown light: DIVMTQSPLSLPVTPGEPASISCQASESLVHSNRNTYLHWYLQKPGQSPQLLIYKVSNRFSGVPDRFSGSGSGTDFTLKISRVEAEDVGVYYCSQNTHVPPTFGQGTKVEIERTVAAPSVFIFPPSDEQLKSGTASVVCLLNNFYPREAKVQWKVDNALQSGNSQESVTEQDSKDSTYSLSSTLTLSKADYEKHKVYACEVTHQGLSSPVTKSFNRGEC	103%
GpH7-A5/GpH7-B3 variant L234_16H/GpL16-k0 (antibody, human IgG1, kappa, He Ab; copies: 1 + 1 + 2) heavy 1: not shown heavy 2: not shown light: DIVMTQSPLSLPVTPGEPASISCQASESLVHSNRNTYLHWYLQKPGQSPQLLIYKVSNRFSGVPDRFSGSGSGTDFTLKISRVEAEDVGVYYCSQNTHVPPTFGQGTKVEIERTVAAPSVFIFPPSDEQLKSGTASVVCLLNNFYPREAKVQWKVDNALQSGNSQESVTEQDSKDSTYSLSSTLTLSKADYEKHKVYACEVTHQGLSSPVTKSFNRGEC	76.8%
GpH7-A5/GpH7-B3 variant L234_19Q/GpL16-k0 (antibody, human IgG1, kappa, He Ab; copies: 1 + 1 + 2) heavy 1: not shown heavy 2: not shown light: DIVMTQSPLSLPVTPGEPASISCQASESLVHSNRNTYLHWYLQKPGQSPQLLIYKVSNRFSGVPDRFSGSGSGTDFTLKISRVEAEDVGVYYCSQNTHVPPTFGQGTKVEIERTVAAPSVFIFPPSDEQLKSGTASVVCLLNNFYPREAKVQWKVDNALQSGNSQESVTEQDSKDSTYSLSSTLTLSKADYEKHKVYACEVTHQGLSSPVTKSFNRGEC	77.1%
GpH7-A5/GpH7-B3 variant L235_13S/GpL16-k0 (antibody, human IgG1, kappa, He Ab; copies: 1 + 1 + 2) heavy 1: not shown heavy 2: not shown light: DIVMTQSPLSLPVTPGEPASISCQASESLVHSNRNTYLHWYLQKPGQSPQLLIYKVSNRFSGVPDRFSGSGSGTDFTLKISRVEAEDVGVYYCSQNTHVPPTFGQGTKVEIERTVAAPSVFIFPPSDEQLKSGTASVVCLLNNFYPREAKVQWKVDNALQSGNSQESVTEQDSKDSTYSLSSTLTLSKADYEKHKVYACEVTHQGLSSPVTKSFNRGEC	67.2%
GpH7-A5/GpH7-B3 variant L235_07I/GpL16-k0 (antibody, human IgG1, kappa, He Ab; copies: 1 + 1 + 2) heavy 1: not shown heavy 2: not shown light: DIVMTQSPLSLPVTPGEPASISCQASESLVHSNRNTYLHWYLQKPGQSPQLLIYKVSNRFSGVPDRFSGSGSGTDFTLKISRVEAEDVGVYYCSQNTHVPPTFGQGTKVEIERTVAAPSVFIFPPSDEQLKSGTASVVCLLNNFYPREAKVQWKVDNALQSGNSQESVTEQDSKDSTYSLSSTLTLSKADYEKHKVYACEVTHQGLSSPVTKSFNRGEC	92.8%
GpH7-A5/GpH7-B3 variant L235_04F/GpL16-k0 (antibody, human IgG1, kappa, He Ab; copies: 1 + 1 + 2) heavy 1: not shown heavy 2: not shown light: DIVMTQSPLSLPVTPGEPASISCQASESLVHSNRNTYLHWYLQKPGQSPQLLIYKVSNRFSGVPDRFSGSGSGTDFTLKISRVEAEDVGVYYCSQNTHVPPTFGQGTKVEIERTVAAPSVFIFPPSDEQLKSGTASVVCLLNNFYPREAKVQWKVDNALQSGNSQESVTEQDSKDSTYSLSSTLTLSKADYEKHKVYACEVTHQGLSSPVTKSFNRGEC	76.4%
GpH7-A5/GpH7-B3 variant L235_15Y/GpL16-k0 (antibody, human IgG1, kappa, He Ab; copies: 1 + 1 + 2) heavy 1: not shown heavy 2: not shown light: DIVMTQSPLSLPVTPGEPASISCQASESLVHSNRNTYLHWYLQKPGQSPQLLIYKVSNRFSGVPDRFSGSGSGTDFTLKISRVEAEDVGVYYCSQNTHVPPTFGQGTKVEIERTVAAPSVFIFPPSDEQLKSGTASVVCLLNNFYPREAKVQWKVDNALQSGNSQESVTEQDSKDSTYSLSSTLTLSKADYEKHKVYACEVTHQGLSSPVTKSFNRGEC	77.8%
GpH7-A5/GpH7-B3 variant L235_16H/GpL16-k0 (antibody, human IgG1, kappa, He Ab; copies: 1 + 1 + 2) heavy 1: not shown heavy 2: not shown light: DIVMTQSPLSLPVTPGEPASISCQASESLVHSNRNTYLHWYLQKPGQSPQLLIYKVSNRFSGVPDRFSGSGSGTDFTLKISRVEAEDVGVYYCSQNTHVPPTFGQGTKVEIERTVAAPSVFIFPPSDEQLKSGTASVVCLLNNFYPREAKVQWKVDNALQSGNSQESVTEQDSKDSTYSLSSTLTLSKADYEKHKVYACEVTHQGLSSPVTKSFNRGEC	57.1%
GpH7-A5/GpH7-B3 variant L235_09D/GpL16-k0 (antibody, human IgG1, kappa, He Ab; copies: 1 + 1 + 2) heavy 1: not shown heavy 2: not shown light: DIVMTQSPLSLPVTPGEPASISCQASESLVHSNRNTYLHWYLQKPGQSPQLLIYKVSNRFSGVPDRFSGSGSGTDFTLKISRVEAEDVGVYYCSQNTHVPPTFGQGTKVEIERTVAAPSVFIFPPSDEQLKSGTASVVCLLNNFYPREAKVQWKVDNALQSGNSQESVTEQDSKDSTYSLSSTLTLSKADYEKHKVYACEVTHQGLSSPVTKSFNRGEC	88.5%
GpH7-A5/GpH7-B3 variant L234_18N/GpL16-k0 (antibody, human IgG1, kappa, He Ab; copies: 1 + 1 + 2) heavy 1: not shown heavy 2: not shown light: DIVMTQSPLSLPVTPGEPASISCQASESLVHSNRNTYLHWYLQKPGQSPQLLIYKVSNRFSGVPDRFSGSGSGTDFTLKISRVEAEDVGVYYCSQNTHVPPTFGQGTKVEIERTVAAPSVFIFPPSDEQLKSGTASVVCLLNNFYPREAKVQWKVDNALQSGNSQESVTEQDSKDSTYSLSSTLTLSKADYEKHKVYACEVTHQGLSSPVTKSFNRGEC	88.2%
GpH7-A5/GpH7-B3 variant L235_06M/GpL16-k0 (antibody, human IgG1, kappa, He Ab; copies: 1 + 1 + 2) heavy 1: not shown heavy 2: not shown light: DIVMTQSPLSLPVTPGEPASISCQASESLVHSNRNTYLHWYLQKPGQSPQLLIYKVSNRFSGVPDRFSGSGSGTDFTLKISRVEAEDVGVYYCSQNTHVPPTFGQGTKVEIERTVAAPSVFIFPPSDEQLKSGTASVVCLLNNFYPREAKVQWKVDNALQSGNSQESVTEQDSKDSTYSLSSTLTLSKADYEKHKVYACEVTHQGLSSPVTKSFNRGEC	75.6%
GpH7-A5/GpH7-B3 variant L235_05P/GpL16-k0 (antibody, human IgG1, kappa, He Ab; copies: 1 + 1 + 2) heavy 1: not shown heavy 2: not shown light: DIVMTQSPLSLPVTPGEPASISCQASESLVHSNRNTYLHWYLQKPGQSPQLLIYKVSNRFSGVPDRFSGSGSGTDFTLKISRVEAEDVGVYYCSQNTHVPPTFGQGTKVEIERTVAAPSVFIFPPSDEQLKSGTASVVCLLNNFYPREAKVQWKVDNALQSGNSQESVTEQDSKDSTYSLSSTLTLSKADYEKHKVYACEVTHQGLSSPVTKSFNRGEC	68.6%
GpH7-A5/GpH7-B3 variant L235_19Q/GpL16-k0 (antibody, human IgG1, kappa, He Ab; copies: 1 + 1 + 2) heavy 1: not shown heavy 2: not shown light: DIVMTQSPLSLPVTPGEPASISCQASESLVHSNRNTYLHWYLQKPGQSPQLLIYKVSNRFSGVPDRFSGSGSGTDFTLKISRVEAEDVGVYYCSQNTHVPPTFGQGTKVEIERTVAAPSVFIFPPSDEQLKSGTASVVCLLNNFYPREAKVQWKVDNALQSGNSQESVTEQDSKDSTYSLSSTLTLSKADYEKHKVYACEVTHQGLSSPVTKSFNRGEC	68.1%
GpH7-A5/GpH7-B3 variant L235_18N/GpL16-k0 (antibody, human IgG1, kappa, He Ab; copies: 1 + 1 + 2) heavy 1: not shown heavy 2: not shown light: DIVMTQSPLSLPVTPGEPASISCQASESLVHSNRNTYLHWYLQKPGQSPQLLIYKVSNRFSGVPDRFSGSGSGTDFTLKISRVEAEDVGVYYCSQNTHVPPTFGQGTKVEIERTVAAPSVFIFPPSDEQLKSGTASVVCLLNNFYPREAKVQWKVDNALQSGNSQESVTEQDSKDSTYSLSSTLTLSKADYEKHKVYACEVTHQGLSSPVTKSFNRGEC	65%
GpH7-A5/GpH7-B3 variant L235_14T/GpL16-k0 (antibody, human IgG1, kappa, He Ab; copies: 1 + 1 + 2) heavy 1: not shown heavy 2: not shown light: DIVMTQSPLSLPVTPGEPASISCQASESLVHSNRNTYLHWYLQKPGQSPQLLIYKVSNRFSGVPDRFSGSGSGTDFTLKISRVEAEDVGVYYCSQNTHVPPTFGQGTKVEIERTVAAPSVFIFPPSDEQLKSGTASVVCLLNNFYPREAKVQWKVDNALQSGNSQESVTEQDSKDSTYSLSSTLTLSKADYEKHKVYACEVTHQGLSSPVTKSFNRGEC	73.2%
GpH7-A5/GpH7-B3 variant L235_02A/GpL16-k0 (antibody, human IgG1, kappa, He Ab; copies: 1 + 1 + 2) heavy 1: not shown heavy 2: not shown light: DIVMTQSPLSLPVTPGEPASISCQASESLVHSNRNTYLHWYLQKPGQSPQLLIYKVSNRFSGVPDRFSGSGSGTDFTLKISRVEAEDVGVYYCSQNTHVPPTFGQGTKVEIERTVAAPSVFIFPPSDEQLKSGTASVVCLLNNFYPREAKVQWKVDNALQSGNSQESVTEQDSKDSTYSLSSTLTLSKADYEKHKVYACEVTHQGLSSPVTKSFNRGEC	72%
